Source: US20200046770A1

Biological target: PDGF-DD (active, proteolytically processed homodimer) as used in solid-phase binding and SPR (human) (UniProt Q9GZP0)
Assay: SPR (Biacore T100), PDGF-DD immobilised on CM5 chip, NKp44 18-130-His6 in the mobile phase, steady-state fit for a 1:1 interaction

Sequence of PDGF-DD (active, proteolytically processed homodimer) as used in solid-phase binding and SPR (human) (Q9GZP0 184-370 limits assumed, form in doubt): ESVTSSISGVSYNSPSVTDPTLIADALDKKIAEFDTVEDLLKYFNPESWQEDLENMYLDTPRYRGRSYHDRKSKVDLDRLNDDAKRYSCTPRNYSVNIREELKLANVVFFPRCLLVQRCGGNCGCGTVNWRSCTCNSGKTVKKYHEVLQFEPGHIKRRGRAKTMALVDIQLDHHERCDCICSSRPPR

Kd: 3.3 µM
Substance: Bacterial expressed NKp44 (residues 18-130 with a C-terminal His6 tag) (from UniProt O95944 18-130) (receptor)
